Measurements from patent publication US12624096B2, “Anti-tau antibodies and methods of use thereof” (GTInvent Limited, priority 2020, dated 2026).

How the values were obtained:
Type in all cases: binding
[1] = system: tau protein in brain homogenate; assay: Capture ELISA on transgenic mouse brain lysates; details: S1D12 mAb capture; WT, L1, L66+/- and L66+/+
Procedure: Mouse brain lysates were prepared from wildtype, Line 1, Line 66+/+ and Line 66+/− (Melis et al., 2015, all surplus from Charles River, part of study R0144). All animals were female, 7-8 months old except Line 66+/+ which were 5 months old. […] The L1 cDNA construct (FIG. 23) contains human tau cDNA coding for amino acid residues 296-390 with a signal sequence and related sequences in a murine Thy-1 expression cassette. For brain lysate preparation, half brains were sectioned into four and the individual sections were homogenised in 400 μl of ice cold RIPA buffer (Cell signalling Technology) containing protease and phosphatase inhibitors. Total protein concentrations for individual samples were established by BCA-assay and each sample was subsequently diluted to 1 mg/ml for future experiments.
For capture ELISA, 100 µL S1D12 capture mAb was used to coat a nunc 96 well Maxisorp plate at 1 μg/ml and incubated for 1 hour at 37° C. Plate was washed as previously and then blocked for 1 hour at 37° C., in 2% MPBS. Brain homogenate samples (50 ng total protein) from each mouse type were added to the first wells and double diluted across the plate in PBS. These samples were left to incubate at RT for 1 hour. Various detection scAbs encompassing epitopes of interest were then added to the plate at 1 μg/ml and incubated for 1 h at RT. […]

human tau and mouse tau = assay: Western blot of WT, L66+/+ and L1+/+ mouse brain homogenates; details: 20 μg protein, 5-month-old mice
Procedure: Protein equivalent to 20 μg from each brain extract was separated using 4-20% bis-tris gels and run in 1×MES buffer.
A band is detected in each sample (WT, L66^+/+ and L1^+/+) with an apparent molecular weight of approximately 55 kDa. This band most likely corresponds to endogenous mouse tau which is of a similar size. In the L66^+/+ samples, a second band running at approximately 68 kDa is also detected. The presence of numerous other bands indicates proteolytic truncation of tau within brain homogenates.

htau40 = htau40 (Homo sapiens, UniProt P10636); assay: Biacore X100 SPR of anti-tau mAbs on immobilised htau40; details: mAb, Table 27, immobilised hT40
Chain of htau40 (P10636 1-441 isoform P10636-8): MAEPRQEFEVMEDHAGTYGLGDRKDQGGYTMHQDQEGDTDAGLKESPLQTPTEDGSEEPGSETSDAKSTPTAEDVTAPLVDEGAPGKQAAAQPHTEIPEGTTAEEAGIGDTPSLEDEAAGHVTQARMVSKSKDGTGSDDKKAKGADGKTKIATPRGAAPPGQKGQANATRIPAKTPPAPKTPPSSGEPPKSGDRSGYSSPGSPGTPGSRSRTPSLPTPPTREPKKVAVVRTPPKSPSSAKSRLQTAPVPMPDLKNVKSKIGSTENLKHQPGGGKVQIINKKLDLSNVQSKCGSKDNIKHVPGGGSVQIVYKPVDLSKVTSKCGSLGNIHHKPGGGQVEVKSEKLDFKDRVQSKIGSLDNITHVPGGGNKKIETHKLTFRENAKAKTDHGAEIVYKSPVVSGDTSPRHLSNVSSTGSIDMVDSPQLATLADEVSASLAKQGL
Summary of the method: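 htau40 amine-coupled to a CM5 chip (~250 RU); mAb injected at 0.78–25 nM in HBS-EP+ at 30 μL/min, 120 s association, 600 s dissociation, glycine pH 1.5 regeneration. Kinetics and affinity from 1:1 binding fit with reference-cell subtraction.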

tau fragments in plasma = assay: Capture ELISA on transgenic mouse plasma; details: detection scAb, Line66 transgenic model
Procedure: Plasma samples from WT, L1, L66+/− and L66^+/+ of various ages (1.5-9 months) were taken as described. Mice were terminally anaesthetized using an overdose of sodium pentobarbital and blood was collected through cardiac puncture through a Plastipak syringe pre-rinsed with heparinised saline heparin (10 U/ml) (Heparin sodium salt; Sigma-Aldrich) and transferred into a plastic vial containing lithium heparin anticoagulant (Sarstedt Ltd.) Blood samples, kept on ice for no more than 30 minutes, were centrifuged to obtain plasma at 2000× g for 5 minutes at 6° C. Plasma samples were stored at −20° C.
For mouse plasma capture ELISA, 100 μL capture mAb was coated to the bottom of a black nunc 96 well ‘maxisorp’ plate at 2.5 μg/ml and incubated for 1 hour at 37° C. After washing and blocking as normal, several known standard solutions were set up in triplicate starting at 20 ng/ml of the desired protein before double diluted in the remaining wells. Mouse samples were added to wells in duplicate with a blank in between each sample group. Line1 plasma was diluted 1:10 before addition to plate to account for its high concentration while other samples were diluted 1:2 to account for potential matrix effects. […] The ELISA was developed using SuperSignal ELISA Femto Substrate (Thermo Scientific) and total luminescence was read on Clariostar Plus plate reader (BMG Labtech). […]

hT40 = hT40 (Homo sapiens, UniProt P10636); assay: Biacore X100 SPR, scAb captured via anti-HuCk, hT40 as analyte; details: scAb, Table 23, T441 (hT40)
Chain of hT40 (P10636 1-441 isoform P10636-8): as above
Summary of the method: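 Captured scAb on anti-HuCk CM5 surface (flow cell 1 as reference) in HBS-EP+, capture set for theoretical RMax 100 RU; hT40 injected multi-cycle (0.15625–100 nM) or single-cycle (6.25–100 nM), 120 s association, 420 s dissociation, glycine pH 2.0 regeneration. Kinetics and affinity from 1:1 binding model fit.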

B1: CB7: anti-tau clone, SEQ ID NO: 364 (protein)
scFv: QVQLQESGPSLVKPSQTLSLTCTVSGFSLTNYRVGWVRQAPGKALEWVSNIRSGGTTWYNPALKSRLSITADTSKSQVSLSLSSVTTEDTAVYYCARDSSGDLYAYDYWGPGLLVTVSSEGKSSGASGESKVDDQAVLTQPSSVSRSLGQSVSMTCSGSSSNVGYGNYMAWFQQVPGSAPKLLIYGATSRASGVPDRFSGSRSGNTATLTISSLQAEDEADYYCASYDSTSGGVFGSGTRLTVLG
modifications: CB7 amino acid sequence
tau detection in mouse brain homogenate [1]: hT40 tau was specifically detected in L66 samples
bands detected in western blot of WT, L66+/+ and L1+/+ brain homogenates (human tau and mouse tau): show specificity for human tau
ka (htau40): 2.568e+06 M⁻¹ s⁻¹
kd (htau40): 0.009451 s⁻¹
cross reaction with endogenous mouse tau protein (tau fragments in plasma): does not cross react with endogenous mouse tau protein
ka (hT40): 133400 M⁻¹ s⁻¹
kd (hT40): 0.0006936 s⁻¹
